US20050148763A1, “Peg-binding pth or peg-binding pth derivative” (Chugai Seiyaku Kabushiki Kaisha, priority 2002, published 2005)
pEC50: −log10 of the molar value.

Experiments:
rat PTH1 receptors = molecular target: T1, rat PTH1 receptors (Rattus norvegicus, UniProt P25961); assay: in vitro ability to produce cAMP, EW29 cells; assay type: cell-based; conditions: Table 2(3), n=2-3; for pEC50: cAMP production
T1 construct: expressed in transfected cells; host or cells: EW29 cells
T1 sequence (P25961 27-591): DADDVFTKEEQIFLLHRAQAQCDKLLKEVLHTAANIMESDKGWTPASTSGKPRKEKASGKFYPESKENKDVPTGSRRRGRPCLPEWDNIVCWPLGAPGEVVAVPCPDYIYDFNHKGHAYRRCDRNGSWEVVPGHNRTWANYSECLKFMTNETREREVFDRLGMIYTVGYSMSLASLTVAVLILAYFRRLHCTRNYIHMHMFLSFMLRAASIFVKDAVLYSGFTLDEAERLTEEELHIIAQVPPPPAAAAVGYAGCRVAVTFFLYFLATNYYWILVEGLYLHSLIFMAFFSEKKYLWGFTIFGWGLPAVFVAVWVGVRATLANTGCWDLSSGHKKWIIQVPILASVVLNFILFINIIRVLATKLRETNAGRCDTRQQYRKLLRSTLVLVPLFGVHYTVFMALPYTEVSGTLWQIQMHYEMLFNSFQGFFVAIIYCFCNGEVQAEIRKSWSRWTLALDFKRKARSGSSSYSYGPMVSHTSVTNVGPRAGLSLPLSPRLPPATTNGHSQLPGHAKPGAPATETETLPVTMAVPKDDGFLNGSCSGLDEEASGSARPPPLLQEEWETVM
Procedure: (§1) Each PEG-PTH sample was assayed for its ability to produce cAMP (indicative of the increasing effect of PTH on bone mass) as follows. […] These cells were seeded in 96-well plates at 1×10^5 cells/well and incubated overnight. […] After removing the reaction solution, the plates were placed on powdered dry ice to freeze the cells and then removed from the dry ice. The cells were thawed with 50 μL of 50 mM HCl and frozen again on dry ice. The level of intracellular cAMP was determined with a commercially available EIA kit (Biotrak cAMP EIA system, Amersham).

human PTH1 receptors [1] = molecular target: T2, human PTH1 receptors (Homo sapiens, UniProt Q03431); assay: in vitro ability to produce cAMP, HKRK-B64 cells; assay type: cell-based; conditions: Table 2(2), n=2-3; for pEC50: cAMP production
T2 construct: expressed in transfected cells; host or cells: HKRK-B7 and HKRK-B64 cells (derived from pig kidney LLC-PK1 cells)
T2 sequence (Q03431 27-593): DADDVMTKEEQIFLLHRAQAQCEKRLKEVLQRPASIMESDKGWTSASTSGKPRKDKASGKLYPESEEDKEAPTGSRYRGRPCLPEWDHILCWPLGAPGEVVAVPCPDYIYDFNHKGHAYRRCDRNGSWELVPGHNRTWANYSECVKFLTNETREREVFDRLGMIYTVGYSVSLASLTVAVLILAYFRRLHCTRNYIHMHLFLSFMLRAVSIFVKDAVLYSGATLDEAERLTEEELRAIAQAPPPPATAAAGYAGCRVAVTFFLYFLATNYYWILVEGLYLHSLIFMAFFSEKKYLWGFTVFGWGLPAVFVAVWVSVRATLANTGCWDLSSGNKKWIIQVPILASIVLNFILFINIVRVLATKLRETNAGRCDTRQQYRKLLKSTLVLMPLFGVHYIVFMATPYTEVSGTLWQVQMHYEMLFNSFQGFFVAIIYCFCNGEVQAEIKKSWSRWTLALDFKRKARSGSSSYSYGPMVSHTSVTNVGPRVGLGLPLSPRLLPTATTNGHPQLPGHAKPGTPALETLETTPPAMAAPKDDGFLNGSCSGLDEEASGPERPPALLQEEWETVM
Procedure: Each PEG-PTH sample was assayed for its ability to produce cAMP (indicative of the increasing effect of PTH on bone mass) as follows. HKRK-B7 and HKRK-B64 cells, genetically modified from pig kidney-derived LLC-PK1 cells to overexpress human PTH1 receptors at levels of about 1×10^6 and 9×10^4 receptors per cell, respectively, as well as EW29 cells expressing about 1.9×10^5 rat PTH1 receptors per cell (Takasu et al., J. Bone. Miner. Res. 14: 11-20, 1999) were grown in DMEM supplemented with 10% FBS, 1% penicillin and 1% streptomycin. These cells were seeded in 96-well plates at 1×10^5 cells/well and incubated overnight. On the following day, the cells were washed once with 200 μL binding buffer (50 mM Tris-HCl/100 mM NaCl/5 mM KCl/2 mM CaCl2/5% inactivated horse serum/0.5% inactivated bovine serum, pH 7.7), followed by addition of 100 μL cAMP assay buffer (DMEM/2 mM 3-isobutyl-1-methylxanthine/1 mg/mL bovine serum albumin/35 mM HEPES-NaOH, pH 7.4) on ice. […] After removing the reaction solution, the plates were placed on powdered dry ice to freeze the cells and then removed from the dry ice. The cells were thawed with 50 μL of 50 mM HCl and frozen again on dry ice. The level of intracellular cAMP was determined with a commercially available EIA kit (Biotrak cAMP EIA system, Amersham).

[2] = Hypercalcemic effect of PEG-[Cys^35]-PTH(1-35) in normal female DDY mice; assay type: in vivo; conditions: for Blood iCa level Hour 1: 1 hour after administration; for Blood iCa level Hour 3: 3 hours; for Blood iCa level Hour 6: 6 hours; for Blood iCa level Hour 9: 9 hours; for Blood iCa level Hour 24: 24 hours; for Blood iCa level Hour 0: before administration; for hypercalcemic effect (in words): 10-150 nmol/kg
Procedure: 2 k, 5 k and 20 k PEG-[Cys^35]-PTH(1-35) were also adjusted similarly to 30, 10 and 2 nmol/mL (calculated as PTH) and allowed to stand on ice immediately before administration.
Using female DDY mice at 6 weeks of age (Japan SLC, Inc.), the corrected level of ionized calcium at pH 7.4 was determined for each sample in the same manner as shown in (1) above. The mice received subcutaneous administration of each drug at a dose of 5 mL/kg. The buffer was administered to a group of 5 mice. […] 150 nmol/kg 2 k, 5 k and 20 k PEG-[Cys^35]-PTH(1-35) were administered to groups of 4 mice each. 50 and 10 nmol/kg 2 k, 5 k and 20 k PEG-[Cys^35]-PTH(1-35) were administered to groups of 5 mice each. At 1, 3, 6, 9 and 24 hours after administration, blood was collected by orbital puncture to monitor the time course of corrected blood ionized calcium levels.

human PTH1 receptors [3] = molecular target: T2, human PTH1 receptors; assay: in vitro ability to produce cAMP, HKRK-B7 cells; assay type: cell-based; conditions: Table 2(1), n=2-3; for pEC50: cAMP production
Procedure: as §1

Row | Maximum cAMP response (rat PTH1 receptors) [pmol/well] | pEC50 (rat PTH1 receptors) | Maximum cAMP response (human PTH1 receptors [1]) [pmol/well] | pEC50 (human PTH1 receptors [1]) | Substance | Blood iCa level Hour 1 ([2]; 10 nmol/kg sc) [mM] | Blood iCa level Hour 3 ([2]; 10 nmol/kg sc) [mM] | Blood iCa level Hour 6 ([2]; 10 nmol/kg sc) [mM] | Blood iCa level Hour 9 ([2]; 10 nmol/kg sc) [mM] | Blood iCa level Hour 24 ([2]; 10 nmol/kg sc) [mM] | Blood iCa level Hour 0 ([2]; 10 nmol/kg sc) [mM] | Blood iCa level Hour 1 ([2]; 50 nmol/kg sc) [mM] | Blood iCa level Hour 3 ([2]; 50 nmol/kg sc) [mM] | Blood iCa level Hour 6 ([2]; 50 nmol/kg sc) [mM] | Blood iCa level Hour 9 ([2]; 50 nmol/kg sc) [mM] | Blood iCa level Hour 24 ([2]; 50 nmol/kg sc) [mM] | Blood iCa level Hour 0 ([2]; 50 nmol/kg sc) [mM] | Blood iCa level Hour 1 ([2]; 150 nmol/kg sc) [mM] | Blood iCa level Hour 3 ([2]; 150 nmol/kg sc) [mM] | Blood iCa level Hour 6 ([2]; 150 nmol/kg sc) [mM] | Blood iCa level Hour 9 ([2]; 150 nmol/kg sc) [mM] | also measured
1 | 52.5 ± 14.1 | 8.46 | 66.6 ± 17.4 | 9.00 | 5 k PEG-[Cys^35]-hPTH(1-35): [Cys^35]-hPTH(1-35) conjugated with 5 kDa PEG (SVSEIQLMHNLGKHLNSMERVEWLRKKLQDVHNFC; Parathyroid hormone 5 kDa PEG at Cys35; UniProt P01270 32-66, looked up, variant V35C) | 1.44 ± 0.02 | 1.50 ± 0.02 | 1.43 ± 0.02 | 1.28 ± 0.04 | 1.36 ± 0.03 | 1.30 ± 0.04 | 1.43 ± 0.03 | 1.49 ± 0.04 | 1.48 ± 0.03 | 1.35 ± 0.06 | 1.36 ± 0.04 | 1.31 ± 0.03 | 1.43 ± 0.04 | 1.49 ± 0.03 | 1.52 ± 0.05 | 1.35 ± 0.02 | Blood iCa level Hour 24 ([2]; 150 nmol/kg sc): 1.40 ± 0.05 mM; Blood iCa level Hour 0 ([2]; 150 nmol/kg sc): 1.30 ± 0.03 mM; increased blood ionized calcium level maintained until ([2]; female DDY mice, sc): 6 h; time of maximum increase in blood ionized calcium levels after administration ([2]; female DDY mice, sc): 3 h; Maximum cAMP response (human PTH1 receptors [3]): 122.7 ± 11.5 pmol/well; pEC50 (human PTH1 receptors [3]): 9.05
2 | 59.4 ± 12.9 | 8.04 | 79.6 ± 14.6 | 8.10 | 20 k PEG-[Cys^35]-hPTH(1-35): [Cys^35]-hPTH(1-35) conjugated with 20 kDa PEG (SVSEIQLMHNLGKHLNSMERVEWLRKKLQDVHNFC; Parathyroid hormone 20 kDa PEG at Cys35; UniProt P01270 32-66, looked up, variant V35C) | 1.39 ± 0.03 | 1.51 ± 0.01 | 1.48 ± 0.05 | 1.43 ± 0.05 | 1.78 ± 0.09 | 1.27 ± 0.04 | 1.44 ± 0.03 | 1.53 ± 0.02 | 1.51 ± 0.03 | 1.44 ± 0.06 | 2.44 ± 0.12 | 1.30 ± 0.04 | 1.42 ± 0.02 | 1.54 ± 0.02 | 1.55 ± 0.03 | 1.43 ± 0.06 | Blood iCa level Hour 24 ([2]; 150 nmol/kg sc): 2.71 ± 0.19 mM; Blood iCa level Hour 0 ([2]; 150 nmol/kg sc): 1.30 ± 0.02 mM; hypercalcemic effect (in words) ([2]; female DDY mice, sc, listed as 20 k PEG-(Cys^35]-PTH(1-35)): very high blood ionized calcium levels at all tested doses; hypercalcemic effect (in words) ([2]; female DDY mice, sc, listed as 20 k PEG-[Cys^35]-PTH (1-35)): maintained a significantly higher level than that of the buffer group even at 9 hours after administration; Maximum cAMP response (human PTH1 receptors [3]): 131.1 ± 7.5 pmol/well; pEC50 (human PTH1 receptors [3]): 8.57
